Data published in FireProtDB (doi:10.1046/j.1432-1327.1999.00491.x).
Where “and” joins values, the source holds several entries; their conditions need not be identical. Identical values can stand only once.

Conditions: Enterobacteria phage 434, Thermal, DSC, reversible: yes, whole UniProt chain shown; for unfolding free energy: 25 °C
[1] = pH 2, glycine 20 mM, NaCl 200 mM
[2] = pH 3, glycine 20 mM, NaCl 200 mM
[3] = pH 4, Sodium acetate 20 mM, NaCl 200 mM
[4] = pH 4.5, Sodium acetate 20 mM, NaCl 200 mM

B1: Regulatory protein cro wild type, P03036 (protein)
chain: MQTLSERLKKRRIALKMTQTELATKAGVKQQSIQLIEAGVTKRPRFLFEIAMALNCDPVWLQYGTKRGKAA
[1]
  unfolding free energy: 1.17 kcal/mol
  Tm: 38.3 °C and 39.4 °C and 35.6 °C
  unfolding enthalpy (calorimetric): 33.5 kcal/mol and 33.9 kcal/mol and 34.2 kcal/mol
pH 2, glycine 20 mM
  unfolding free energy: 0.22 kcal/mol
  unfolding enthalpy (calorimetric): 24.1 kcal/mol and 27.5 kcal/mol and 22.2 kcal/mol
[2]
  unfolding free energy: 2.27 kcal/mol
  unfolding enthalpy (calorimetric): 42.1 kcal/mol and 40.4 kcal/mol and 39 kcal/mol
pH 3, glycine 20 mM
  unfolding free energy: 2.58 kcal/mol
  unfolding enthalpy (calorimetric): 34.4 kcal/mol and 32 kcal/mol
[3]
  unfolding free energy: 3.78 kcal/mol
  Tm: 59.8 °C and 57.8 °C and 57.2 °C
  unfolding enthalpy (calorimetric): 51.1 kcal/mol and 50 kcal/mol and 49.7 kcal/mol
pH 4, Sodium acetate 20 mM
  unfolding free energy: 3.59 kcal/mol
  Tm: 58.2 °C and 53.6 °C
  unfolding enthalpy (calorimetric): 50 kcal/mol and 45.6 kcal/mol and 44.2 kcal/mol
[4]
  unfolding free energy: 4.33 kcal/mol
  Tm: 63.7 °C and 63.5 °C and 60.2 °C
  unfolding enthalpy (calorimetric): 54 kcal/mol and 54.7 kcal/mol and 52.1 kcal/mol
pH 4.5, Sodium acetate 20 mM
  unfolding free energy: 4.4 kcal/mol
  unfolding enthalpy (calorimetric): 53.1 kcal/mol and 46.4 kcal/mol
pH 7, PIPES 20 mM, NaCl 200 mM
  unfolding free energy: 5.33 kcal/mol
  Tm: 70.7 °C and 66.6 °C and 67.6 °C
  unfolding enthalpy (calorimetric): 58.6 kcal/mol and 57.6 kcal/mol and 58.1 kcal/mol
pH 7, PIPES 20 mM
  unfolding free energy: 5.35 kcal/mol
  Tm: 70.7 °C and 67.2 °C
  unfolding enthalpy (calorimetric): 59 kcal/mol and 54 kcal/mol
